Test results published in paper PMC10752582 (eLife, 2023).

B1: BRAF-CRD only protein NT5 (residues 234-288) (domain or fragment, UniProt P15056 234-288, looked up)
chain: THNFVRKTFFTLAFCDFCRKLLFQGFRCQTCGYKFHQRCSTEVPLMCVNYDQLDL
notes: BRAF residues 234-288 (CRD only); also called BRAF NT5; source: E. coli BL21 codon +, purified
B2: 6xHis-BRAF kinase domain, wild type (amino acids 442-723 with 16 solubilizing mutations) (domain or fragment, UniProt P15056 442-723, looked up)
chain: GRRDSSDDWEIPDGQITVGQRIGSGSFGTVYKGKWHGDVAVKMLNVTAPTPQQLQAFKNEVGVLRKTRHVNILLFMGYSTKPQLAIVTQWCEGSSLYHHLHASETKFEMKKLIDIARQTARGMDYLHAKSIIHRDLKSNNIFLHEDNTVKIGDFGLATVKSRWSGSHQFEQLSGSILWMAPEVIRMQDSNPYSFQSDVYAFGIVLYELMTGQLPYSNINNRDQIIEMVGRGSLSPDLSKVRSNCPKRMKRLMAECLKKKRDERPSFPRILAEIEELARELSG
modifications: biotin (Sulfo-NHS-biotin, 50 molar excess) in the pull-downs on streptavidin beads
notes: BRAF kinase domain, amino acids 442-723, with 16 solubilizing mutations; Designed as in Cope et al., 2020; Amine-coupled to a carboxyl sensor in OpenSPR, biotinylated in pull-downs; also called KD; BRAF-KD; source: E. coli BL21 codon +, purified (cobalt resin, SEC); not shown: 6xHis, N-terminal, kept

How the values were obtained:
Assay in all cases: SPR; OpenSPR; BRAF-KD WT or D594G amine-coupled to a carboxyl sensor (~6000 RUs), BRAF NTs flowed at 30 µL/min; 20 mM HEPES pH 7.4, 150 mM NaCl, 5% glycerol, 0.005% Tween-20, 1% BSA; 1:1 fit
Conditions in all cases: both partners purified
[1] = biological target: B2
[2] = biological target: T1, untagged BRAF NT1 (His/MBP-tag removed by TEV protease) (UniProt P15056 1-288)
T1 construct: BRAF residues 1-288 (BSR, RBD and CRD); also called untagged NT1; source: E. coli BL21 codon +, purified, tag cleaved with TEV protease; not shown: 6xHis, N-terminal, cleaved; MBP, N-terminal, cleaved

[3] = biological target: T2, His/MBP-BRAF NT1 (aa 1-288) (UniProt P15056 1-288)
T2 construct: BRAF residues 1-288 (BSR, RBD and CRD); Cloned in the pET28-MBP vector; also called His/MBP-NT1; source: E. coli BL21 codon +, purified (Ni-NTA, SEC); not shown: 6xHis, N-terminal, kept; MBP, N-terminal, kept

Row | Binder | Kd [1] [nM] | Kd [2] [nM] | Kd [3] [nM]
1 | B1 | > 6000 |  | 
2 | B2 |  | 13 | 11
